Reference: publication PMC9508154

Target: eIF5-CTD_(-CTT)-EE, phosphomimetic mutant S389E/S390E (human) (UniProt P55010)
Experiment: NMR titration

UniProt P55010, sequence (P55010 232-431 S389E/S390E): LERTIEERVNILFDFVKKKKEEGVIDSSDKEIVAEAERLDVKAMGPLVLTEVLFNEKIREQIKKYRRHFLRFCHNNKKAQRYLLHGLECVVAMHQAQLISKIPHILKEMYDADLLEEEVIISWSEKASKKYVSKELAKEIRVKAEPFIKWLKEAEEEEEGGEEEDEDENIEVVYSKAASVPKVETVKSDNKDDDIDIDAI

Row | % CSP reduction at E17 of eIF1A-ΔC bound to m7 | % CSP reduction at G5 of eIF1A-ΔC bound to m7 | % CSP reduction at L25 of eIF1A-ΔC bound to m7 | % CSP reduction at V26 of eIF1A-ΔC bound to m7 | % CSP reduction at W69 of eIF1A-ΔC bound to m7 | % CSP reduction at Y83 of eIF1A-ΔC bound to m7 | Substance
1 | 83% | 95% | 62% | 38% | 63% |  | N-terminal tail of the β subunit of eIF2 (eIF2β-NTT) (domain or fragment)
2 | 32% | 40% | 20% | 24% | 22% | 18% | eIF1A N-terminal tail (eIF1A-NTT) (domain or fragment)
